# Measured values published in patent US20240270846A1 (published 2024).
# Positions count from the first letter of the chain named.
# B1: CE115HA000 H chain altered form Q50L (antibody, human IgG1, kappa, L234A L235A, N297A, name in Kabat numbering)
# heavy: QVQLVESGGGVVQPGRSLRLSCAASGFTFSNAWMHWVRQAPGKGLEWVALIKAKSNNYATYYAESVKGRFTISRDDSKNSLYLQMNSLKTEDTAVYYCRYVHYGAYYGVDAWGQGTTVTVSSASTKGPSVFPLAPSSKSTSGGTAALGCLVKDYFPEPVTVSWNSGALTSGVHTFPAVLQSSGLYSLSSVVTVPSSSLGTQTYICNVNHKPSNTKVDKKVEPKSCDKTHTCPPCPAPEAAGGPSVFLFPPKPKDTLMISRTPEVTCVVVDVSHEDPEVKFNWYVDGVEVHNAKTKPREEQYASTYRVVSVLTVLHQDWLNGKEYKCKVSNKALPAPIEKTISKAKGQPREPQVYTLPPSRCELTKNQVSLSCAVKGFYPSDIAVEWESNGQPENNYKTTPPVLDSDGSFFLVSKLTVDKSRWQQGNVFSCSVMHEALHNHYTQKSLSLSPDYKDDDDK
# chain: EPKSSDKTHTCPPCPAPELLGGPSVFLFPPKPKDTLMISRTPEVTCVVVDVSHEDPEVKFNWYVDGVEVHNAKTKPREEQYNSTYRVVSVLTVLHQDWLNGKEYKCKVSNKALPAPIEKTISKAKGQPREPQVCTLPPSRDELTKNQVSLWCLVKGFYPSDIAVEWESNGQPENNYKTTPPVLDSDGSFFLYSKLTVDKSRWQQGNVFSCSVMHEALHNRYTQKSLSLSP
# light: DIVMTQSPLSLPVTPGEPASISCRSSQSLVHSNRNTYLHWYQQKPGQAPRLLIYKVSNRFSGVPDRFSGSGSGTDFTLKISRVEAEDVGVYYCGQGTQVPYTFGQGTKLEIKRTVAAPSVFIFPPSDEQLKSGTASVVCLLNNFYPREAKVQWKVDNALQSGNSQESVTEQDSKDSTYSLSSTLTLSKADYEKHKVYACEVTHQGLSSPVTKSFNRGEC
# notes: one-arm antibody
# B2: CE115HA000 H chain altered form Q50S (antibody, human IgG1, kappa, L234A L235A, N297A, name in Kabat numbering)
# heavy: B1 heavy with L50S
# chain: B1 chain
# light: B1 light
# notes: one-arm antibody
# B3: CE115HA000 H chain altered form Q50Y (antibody, human IgG1, kappa, L234A L235A, N297A, name in Kabat numbering)
# heavy: B1 heavy with L50Y
# chain: B1 chain
# light: B1 light
# notes: one-arm antibody
# B4: CE115HA000 H chain altered form R16E (antibody, human IgG1, kappa, L234A L235A, N297A, name in Kabat numbering)
# heavy: B1 heavy with R16E, L50Q
# chain: B1 chain
# light: B1 light
# notes: one-arm antibody
# B5: CE115HA000 H chain altered form R16Q (antibody, human IgG1, kappa, L234A L235A, N297A, name in Kabat numbering)
# heavy: B1 heavy with R16Q, L50Q
# chain: B1 chain
# light: B1 light
# notes: one-arm antibody
# B6: CE115HA000 H chain altered form R19T (antibody, human IgG1, kappa, L234A L235A, N297A, name in Kabat numbering)
# heavy: B1 heavy with R19T, L50Q
# chain: B1 chain
# light: B1 light
# notes: one-arm antibody
# B7: CE115HA000 H chain altered form S30D (antibody, human IgG1, kappa, L234A L235A, N297A, name in Kabat numbering)
# heavy: B1 heavy with S30D, L50Q
# chain: B1 chain
# light: B1 light
# notes: one-arm antibody
# B8: CE115HA000 H chain altered form S30G (antibody, human IgG1, kappa, L234A L235A, N297A, name in Kabat numbering)
# heavy: B1 heavy with S30G, L50Q
# chain: B1 chain
# light: B1 light
# notes: one-arm antibody
# B9: CE115HA000 H chain altered form S52cA (antibody, human IgG1, kappa, L234A L235A, N297A, name in Kabat numbering)
# heavy: B1 heavy with L50Q, S55A
# chain: B1 chain
# light: B1 light
# notes: one-arm antibody
# B10: CE115HA000 H chain altered form S52cD (antibody, human IgG1, kappa, L234A L235A, N297A, name in Kabat numbering)
# heavy: B1 heavy with L50Q, S55D
# chain: B1 chain
# light: B1 light
# notes: one-arm antibody
# B11: CE115HA000 H chain altered form S52cF (antibody, human IgG1, kappa, L234A L235A, N297A, name in Kabat numbering)
# heavy: B1 heavy with L50Q, S55F
# chain: B1 chain
# light: B1 light
# notes: one-arm antibody
# B12: CE115HA000 H chain altered form S52cG (antibody, human IgG1, kappa, L234A L235A, N297A, name in Kabat numbering)
# heavy: B1 heavy with L50Q, S55G
# chain: B1 chain
# light: B1 light
# notes: one-arm antibody
# B13: CE115HA000 H chain altered form S52cK (antibody, human IgG1, kappa, L234A L235A, N297A, name in Kabat numbering)
# heavy: B1 heavy with L50Q, S55K
# chain: B1 chain
# light: B1 light
# notes: one-arm antibody
# B14: CE115HA000 H chain altered form S52cL (antibody, human IgG1, kappa, L234A L235A, N297A, name in Kabat numbering)
# heavy: B1 heavy with L50Q, S55L
# chain: B1 chain
# light: B1 light
# notes: one-arm antibody
# B15: CE115HA000 H chain altered form S52cQ (antibody, human IgG1, kappa, L234A L235A, N297A, name in Kabat numbering)
# heavy: B1 heavy with L50Q, S55Q
# chain: B1 chain
# light: B1 light
# notes: one-arm antibody
# B16: CE115HA000 H chain altered form S52cV (antibody, human IgG1, kappa, L234A L235A, N297A, name in Kabat numbering)
# heavy: B1 heavy with L50Q, S55V
# chain: B1 chain
# light: B1 light
# notes: one-arm antibody
# B17: CE115HA000 H chain altered form S52cY (antibody, human IgG1, kappa, L234A L235A, N297A, name in Kabat numbering)
# heavy: B1 heavy with L50Q, S55Y
# chain: B1 chain
# light: B1 light
# notes: one-arm antibody
# B18: CE115HA000 H chain altered form T28D (antibody, human IgG1, kappa, L234A L235A, N297A, name in Kabat numbering)
# heavy: B1 heavy with T28D, L50Q
# chain: B1 chain
# light: B1 light
# notes: one-arm antibody
# B19: CE115HA000 H chain altered form T28S (antibody, human IgG1, kappa, L234A L235A, N297A, name in Kabat numbering)
# heavy: B1 heavy with T28S, L50Q
# chain: B1 chain
# light: B1 light
# notes: one-arm antibody
# B20: CE115HA000 H chain altered form T57A (antibody, human IgG1, kappa, L234A L235A, N297A, name in Kabat numbering)
# heavy: B1 heavy with L50Q, T60A
# chain: B1 chain
# light: B1 light
# notes: one-arm antibody
# B21: CE115HA000 H chain altered form T57I (antibody, human IgG1, kappa, L234A L235A, N297A, name in Kabat numbering)
# heavy: B1 heavy with L50Q, T60I
# chain: B1 chain
# light: B1 light
# notes: one-arm antibody
# B22: CE115HA000 H chain altered form T57K (antibody, human IgG1, kappa, L234A L235A, N297A, name in Kabat numbering)
# heavy: B1 heavy with L50Q, T60K
# chain: B1 chain
# light: B1 light
# notes: one-arm antibody
# B23: CE115HA000 H chain altered form T57N (antibody, human IgG1, kappa, L234A L235A, N297A, name in Kabat numbering)
# heavy: B1 heavy with L50Q, T60N
# chain: B1 chain
# light: B1 light
# notes: one-arm antibody
# B24: CE115HA000 H chain altered form V11L (antibody, human IgG1, kappa, L234A L235A, N297A, name in Kabat numbering)
# heavy: B1 heavy with V11L, L50Q
# chain: B1 chain
# light: B1 light
# notes: one-arm antibody
# B25: CE115HA000 H chain altered form W33A (antibody, human IgG1, kappa, L234A L235A, N297A, name in Kabat numbering)
# heavy: B1 heavy with W33A, L50Q
# chain: B1 chain
# light: B1 light
# notes: one-arm antibody
# B26: CE115HA000 H chain altered form W33D (antibody, human IgG1, kappa, L234A L235A, N297A, name in Kabat numbering)
# heavy: B1 heavy with W33D, L50Q
# chain: B1 chain
# light: B1 light
# notes: one-arm antibody
# B27: CE115HA000 H chain altered form W33F (antibody, human IgG1, kappa, L234A L235A, N297A, name in Kabat numbering)
# heavy: B1 heavy with W33F, L50Q
# chain: B1 chain
# light: B1 light
# notes: one-arm antibody
# B28: CE115HA000 H chain altered form W33H (antibody, human IgG1, kappa, L234A L235A, N297A, name in Kabat numbering)
# heavy: B1 heavy with W33H, L50Q
# chain: B1 chain
# light: B1 light
# notes: one-arm antibody
# B29: CE115HA000 H chain altered form W33L (antibody, human IgG1, kappa, L234A L235A, N297A, name in Kabat numbering)
# heavy: B1 heavy with W33L, L50Q
# chain: B1 chain
# light: B1 light
# notes: one-arm antibody
# B30: CE115HA000 H chain altered form W33Y (antibody, human IgG1, kappa, L234A L235A, N297A, name in Kabat numbering)
# heavy: B1 heavy with W33Y, L50Q
# chain: B1 chain
# light: B1 light
# notes: one-arm antibody
# B31: CE115HA000 H chain altered form Y55D (antibody, human IgG1, kappa, L234A L235A, N297A, name in Kabat numbering)
# heavy: B1 heavy with L50Q, Y58D
# chain: B1 chain
# light: B1 light
# notes: one-arm antibody
# B32: CE115HA000 H chain altered form Y55G (antibody, human IgG1, kappa, L234A L235A, N297A, name in Kabat numbering)
# heavy: B1 heavy with L50Q, Y58G
# chain: B1 chain
# light: B1 light
# notes: one-arm antibody
# B33: CE115HA000 H chain altered form Y55S (antibody, human IgG1, kappa, L234A L235A, N297A, name in Kabat numbering)
# heavy: B1 heavy with L50Q, Y58S
# chain: B1 chain
# light: B1 light
# notes: one-arm antibody
# Target: T1, CD3 epsilon homodimer protein (UniProt P07766 23-126)
# T1 construct: also called CD3 (CD3 epsilon)
# Assay: SPR Biacore T200, CD3 epsilon homodimer on chip, antibody as analyte;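 note: homodimer amine-coupled to a CM4 sensor chip, run at 25 °C in HBS-EP+ buffer, with kinetic parameters derived in Biacore T200 Evaluation Software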
# T1 sequence (P07766 23-126): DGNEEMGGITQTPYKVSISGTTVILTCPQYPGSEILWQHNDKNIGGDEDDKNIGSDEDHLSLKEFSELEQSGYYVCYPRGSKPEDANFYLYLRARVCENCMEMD
row,Binder,KD ratio (KD of CE115HA000 / KD of altered form)
1,B1,1.41
2,B2,47.4
3,B3,49.1
4,B4,0.74
5,B5,0.87
6,B6,0.81
7,B7,0.79
8,B8,0.93
9,B9,0.67
10,B10,0.55
11,B11,0.93
12,B12,0.81
13,B13,0.88
14,B14,0.94
15,B15,0.97
16,B16,0.82
17,B17,0.87

row,Binder,KD ratio (KD of CE115HA000 / KD of altered form)
1,B18,0.93
2,B19,0.79
3,B20,0.87
4,B21,0.81
5,B22,1.22
6,B23,0.9
7,B24,0.83
8,B25,30
9,B26,1690
10,B27,0.66
11,B28,4.96
12,B29,56600
13,B30,0.69
14,B31,0.89
15,B32,0.99
16,B33,5.65
